The subject of data set [1] is double stranded RNA substrate. In words: Nucleic acid unwinding activity, scintillation proximity assay. Type of data set: biochemical. As to the method:
The newly engineered single-chain recombinant His-NS4A21-32-GSGS-NS33-631 (SEQ ID NO: 4) was assayed for nucleic acid unwinding activity using a scintillation proximity assay (SPA, Amersham Life Science Inc., Arlington Height, Ill.). The unwinding activity present in this covalent His-NS4A21-32-GSGS-NS33-631 complex was compared with that of the full length His-NS31-631-NS4A1-54 complex under their corresponding optimal buffer conditions. The double stranded RNA substrate (Oligos, Etc., Inc. Wilsonville, Oreg.) used in the assay contained a template 5′-GCUCGCCCGGGGAUCCUCUAGGAAUACACGUUCGAU-3′ (SEQ ID NO: 121) annealed to a primer 5′-CUAGAGGAUCCCCGGGCGAGCCCUAUAGUGAGUCGU-3′ (complementary sequences of the template and the primer are underlined). This substrate is end-labeled with ^33P using T4 polynucleotide kinase.
The assay conditions for the covalent His-NS4A21-32-GSGS-NS33-631 complex were 100 mM MOPS [pH 7.0], 0.5 mM MgCl2, 2 mM ATP, 0.5 mM DTT, […] BSA, 2% dimethylsulfoxide (DMSO) and 1 U RNase inhibitor (5 prime→3 prime, Inc., Boulder, Colo.). For the full length His-NS31-631/NS4A1-54 complex, the assay conditions were 100 mM PIPES [pH 6.0], 1 mM MgCl2, 2 mM ATP, 0.6 mM DTT, […] BSA and 1 U RNase inhibitor. In both reactions, 0.5 nM double stranded RNA substrate in a final volume of […] was used. The reaction was carried out at 37 ∞C. for 1 h and terminated by an addition of […] of 0.5 M EDTA. The released primer was captured using […] of 100 nM biotinylated capture oligomer (5′-biotin-GCT-CGC-CCG-GGG-ATC-CTC-TAG-3′) (Gibco/BRL, Grand Island, N.Y.) (SEQ ID NO: 123) in 2×hybridization buffer (40 mM HEPES [pH 7.3], 2M NaCl, 2 mg/ml BSA) at 37 ∞C. for 1 h. The primer-oligomer complex was retained by Streptavidin coated SPA beads (SPA, Amersham Life Science Inc., Arlington Height, Ill.), filtered and washed thoroughly with wash buffer (20 mM HEPES [pH 7.3], 15 mM NaCl, 1.5 mM sodium citrate and 0.05% SDS). The amount of the released labeled primer was quantified using a TopCount reader (Packard A991200, Meriden, Conn.).

The target of data set [2] is T1, helicase domain of the NS3 protein (Hepatitis C virus genotype 1b, UniProt P26663, A1092G/F1173S/K1113A/P1112Q).
T1 construct: N-terminal end of the NS3 protease (NS3 amino acids 3-631) via the linker GSGS; histidine tag followed by a thrombin site (N); made in house; host or cells: E. coli BL21(DE3)
The data set is described as follows: Autocleavage observed during purification. More on the design: species or system HCV. The source says: Also provided are NS4A-tethered forms of NS3 full-length domain. […] To prevent autocleavage of the full-length covalent complexes, the catalytic serine residue at position 139 is mutated to alanine. The amino acid sequence of one such embodiment is defined by SEQ ID NO: 15. The mutation of the full length constructs at position 139 can also be made in the NS4A-tethered forms of the NS3 catalytic domain, and can be made in combination with any of the aforementioned mutations to increase solubility and stability while preventing autocleavage. Representative embodiments are set forth in SEQ ID NOs: 5-8, 15-18 and 20.

Data set [3] in a line: ATPase activity, [a-32P]ATP hydrolysis by thin layer chromatography. Type of data set: biochemical. As to the method:
ATPase activity of the covalent His-NS4A21-32-GSGS-NS33-631 complex (SEQ ID NO: 4) was monitored by direct measurement of [a-^32P]ATP hydrolysis using thin layer chromatography. The enzyme was incubated with 1 mM ATP mixed with [a-^32P]ATP (3000 Ci/mmol, approximately 0.5 mCi per reaction) in a reaction buffer containing 50 mM HEPES [pH 7.3], 10 mM KCl, 0.5 mM DTT, […] bovine serum albumin, fraction V (BSA), 1 mM MgCl2 in the presence or absence of 1 mM polyuridylic acid (poly U) (Pharmacia, Piscataway, N.J.) in a final volume of […]. The reaction was carried out at 37 ∞C. for 1 h and terminated by an addition of […] of 0.5 M EDTA. Half a microliter of the reaction mix was spotted onto a polyethyleneimine-cellulose sheet (SA Scientific Adsorbents Inc., Atlanta, Ga.) and developed by ascending chromatography in 0.375 M potassium phosphate buffer [pH 3.5]. The cellulose sheet was dried and quantified with a Storm 860 PhosphoImager (Molecular Dynamics, Sunnyvale, Calif.).

B1: His-NS4A21-32-GSGS-NS33-631: NS4A 21-32 tethered by GSGS to full-length NS3 residues 3-631, His tag; printed SEQ ID NO: 4 (protein)
chain: MGSSHHHHHHSSGLVPRGSHMGSVVIVGRIILSGSGSITAYSQQTRGLLGCKKTSLTGRDKNQVEGEVQVVSTATQSFLATCVNGVCWTVYHGAGSKTLAGPKGPITQMYTNVDQDLVGWQAPPGARSLTPCTCGSSDLYLVTRHADVIPVRRRGDSRGSLLSPRPVSYLKGSSGGPLLCPSGHAVGIFRAAVCTRGVAKAVDFVPVESMETTMRS
modifications: His tag
Take B1: in data set [1], the “fold less complex required for similar percentage of unwound products vs full length His-NS31-631/NS4A1-54” value is listed as 10 fold. The “nucleic acid unwinding activity” value in data set [1] (FIG. 6, 37 C, 1 h, 0.5 nM dsRNA) is recorded as “proportional to the concentration of enzyme”. The “product released, fold more than equivalent concentration of full length His-NS3/NS4A1-54 complex” value in data set [1] (linear range of the assay, 1-10 pM enzyme) is given as 5-6 fold. Further, the “autocleavage in the helicase domain during purification” value in data set [2] was “a considerable amount of autocleavage”. Moreover, in data set [3] (1 mM poly U, all enzyme concentrations examined), the “increase of ATP hydrolysis in the presence of poly U” value is recorded as 8-13 fold. For the same molecule, the ATPase activity entry in data set [3] (FIG. 7, 1 mM ATP, 37 C, 1 h) is given as “poly U dependent ATPase activity which was proportional to the concentration of the enzyme”. Moreover, the “ATP hydrolysis in the absence of poly U” value in data set [3] (no poly U) was “minimal”.

For the origin of these results see patent US6653127B1, “Single-chain recombinant complexes of hepatitis C virus NS3 protease and NS4A cofactor peptide” (Schering Corporation, priority 1997, dated 2003).
